From patent publication US20160177307

Experiments:
Test in all cases: filter
[1] = target: PDGF-BB (platelet-derived growth factor BB) (Homo sapiens) (UniProt P01127); conditions: 2'-OMe
[2] = test system: T1, VEGF-121 (Homo sapiens), P15692-9
T1 sequence: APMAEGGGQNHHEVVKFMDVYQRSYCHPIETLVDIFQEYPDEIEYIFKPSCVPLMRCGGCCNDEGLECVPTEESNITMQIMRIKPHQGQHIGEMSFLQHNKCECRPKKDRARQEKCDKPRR

[3] = test system: T2, VEGF-165 (Homo sapiens), P15692-4
T2 sequence: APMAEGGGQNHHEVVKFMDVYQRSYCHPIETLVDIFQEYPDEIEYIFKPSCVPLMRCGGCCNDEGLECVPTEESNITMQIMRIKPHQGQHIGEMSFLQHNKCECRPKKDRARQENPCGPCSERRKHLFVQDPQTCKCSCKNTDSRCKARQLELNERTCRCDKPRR

[4] = test system: T3, VEGF-164 (Rattus norvegicus), P16612-2; conditions: P=Nap-dU
T3 sequence: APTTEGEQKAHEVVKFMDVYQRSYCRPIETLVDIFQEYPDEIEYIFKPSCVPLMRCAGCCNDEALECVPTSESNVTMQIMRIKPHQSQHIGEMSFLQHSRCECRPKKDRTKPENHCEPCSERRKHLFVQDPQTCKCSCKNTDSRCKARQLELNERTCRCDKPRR

[5] = Nap-dU, Bn-dU, MBn-dU, 2'-OMe, C3, 3 Heg between parts
[6] = Nap-dU, Bn-dU, MBn-dU, 2'-OMe, C3, 6 Heg between parts
[7] = Bn-dU, MBn-dU, Nap-dU, 2'-OMe, C3, 6 Heg between parts

Sequence of PDGF-BB (platelet-derived growth factor BB) (Homo sapiens) (P01127 82-190): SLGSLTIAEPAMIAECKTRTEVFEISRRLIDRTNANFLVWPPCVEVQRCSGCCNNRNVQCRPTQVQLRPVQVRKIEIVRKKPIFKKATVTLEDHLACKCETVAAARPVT

## CCGTTCAAGTGCTTGTAGGATTTAAATGGTTACGTTACCGCGTTTATAGCG [4149-8_410]
[1]; Nap-dU, Bn-dU, MBn-dU, C3, 3 Heg between parts
  Kd: 0.02 nM
[2]; [5]
  Kd: 0.026 nM
[3]; [5]
  Kd: 0.033 nM

## CGACAGCATGTATGCACATCTCCGTTCAAGTGCTTGTAGGATTTAAATGG [5169-4_100]
[1]; PDGF-5Heg-VEGF, NapdU
  Kd: 0.0015 nM
[2]; PDGF-5Heg-VEGF, NapdU, 2'-OMe
  Kd: 0.056 nM

## CAGCCGTTCAAGTGCTTGTAGGATTTAAATGGAA [4867-31_36]
[4]
  Kd: 0.06 nM
[2]; P=Nap-dU
  Kd: 0.39 nM
[3]; P=Nap-dU
  Kd: 0.11 nM

## TCAATCAGCCGTTCAAGTGCTTGTAGGATTTAAAT [4867-31_25]
[4]
  Kd: 16 nM
[2]; NapdU at P
  Kd: 70 nM
[3]; NapdU at P
  Kd: 26 nM

## CAGCCGTTCAAGTGCTTGTAGGATTTAAATG [4867-31_45]
[4]
  Kd: 4.5 nM
[2]; NapdU at P
  Kd: 3.3 nM
[3]; NapdU at P
  Kd: 1.1 nM

## CCGTTCAAGTGCTTGTAGGATTTAAATGGTTACGTTACCGCGTTTATAGCG [4149-8_413]
[1]; Nap-dU, Bn-dU, MBn-dU, C3, 6 Heg between parts
  Kd: 0.01 nM
[2]; [6]
  Kd: 0.04 nM
[3]; [6]
  Kd: 0.063 nM

## CAATCAGCCGTTCAAGTGCTTGTAGGATTTAAATGGA [4867-31_38]
[4]
  Kd: 0.09 nM
[2]; P=Nap-dU
  Kd: 0.81 nM
[3]; P=Nap-dU
  Kd: 0.17 nM

## TCAGCCGTTCAAGTGCTTGTAGGATTTAAATGGAAT [4867-31_29]
[4]
  Kd: 0.08 nM
[2]; P=Nap-dU
  Kd: 0.96 nM
[3]; P=Nap-dU
  Kd: 0.13 nM

## TCAATCAGCCGTTCAAGTGCTTGTAGGATTTAAATG [4867-31_24]
[4]
  Kd: 4.2 nM
[2]; NapdU at P
  Kd: 36 nM
[3]; NapdU at P
  Kd: 2.8 nM

## CGACAGCATGTATGCACATCTCCGTTCAAGTGCTTGTAGGATTTAAATGG [5169-4_102]
[1]; PDGF-3Heg-VEGF, NapdU
  Kd: 0.011 nM
[2]; PDGF-3Heg-VEGF, NapdU, 2'-OMe
  Kd: 0.14 nM

## CAGCCGTTCAAGTGCTTGTAGGATTTAAATGG [4867-31_44]
[4]
  Kd: 0.38 nM
[2]; NapdU at P
  Kd: 0.14 nM
[3]; NapdU at P
  Kd: 0.13 nM

## CGACAGCATGTATGCACATCTCCGTTCAAGTGCTTGTAGGATTTAAATGG [5169-4_103]
[1]; PDGF-2Heg-VEGF, NapdU
  Kd: 0.0061 nM
[2]; PDGF-2Heg-VEGF, NapdU, 2'-OMe
  Kd: 0.12 nM

## GCCGTTCAAGTGCTTGTAGGATTTAAATGGA [4867-31_58]
[4]
  Kd: 0.21 nM
[2]; NapdU at P
  Kd: 0.15 nM
[3]; NapdU at P
  Kd: 0.1 nM

## ATCAGCCGTTCAAGTGCTTGTAGGATTTAAATGGAAT [4867-31_28]
[4]
  Kd: 0.07 nM
[2]; P=Nap-dU
  Kd: 0.97 nM
[3]; P=Nap-dU
  Kd: 0.1 nM

## AATCAGCCGTTCAAGTGCTTGTAGGATTTAAATGGA [4867-31_39]
[4]
  Kd: 0.09 nM
[2]; P=Nap-dU
  Kd: 0.62 nM
[3]; P=Nap-dU
  Kd: 0.2 nM

## CGACAGCATGTATGCACATCTCCGTTCAAGTGCTTGTAGGATTTAAATGG [5169-4_104]
[1]; PDGF-1Heg-VEGF, NapdU
  Kd: 0.0046 nM
[2]; PDGF-1Heg-VEGF, NapdU, 2'-OMe
  Kd: 0.28 nM

## CCGTTCAAGTGCTTGTAGGATTTAAATGGCGACAGCATGTATGCACATCT [5169-4_97]
[1]; VEGF-2Heg-PDGF, NapdU
  Kd: 0.0037 nM
[2]; VEGF-2Heg-PDGF, NapdU, 2'-OMe
  Kd: 0.1 nM

## CCGTTCAAGTGCTTGTAGGATTTAAATGGCGACAGCATGTATGCACATCT [5169-4_95]
[1]; VEGF-4Heg-PDGF, NapdU
  Kd: 0.0012 nM
[2]; VEGF-4Heg-PDGF, NapdU, 2'-OMe
  Kd: 0.043 nM

## CCGTTCAAGTGCTTGTAGGATTTAAATGGCGACAGCATGTATGCACATCT [5169-4_96]
[1]; VEGF-3Heg-PDGF, NapdU
  Kd: 0.0045 nM
[2]; VEGF-3Heg-PDGF, NapdU, 2'-OMe
  Kd: 0.076 nM

## TTACGTTACCGCGTTTATAGCGCCGTTCAAGTGCTTGTAGGATTTAAATGG [4149-8_417]
[1]; Bn-dU, MBn-dU, Nap-dU, C3, 6 Heg between parts
  Kd: 0.011 nM
[2]; [7]
  Kd: 0.043 nM
[3]; [7]
  Kd: 0.065 nM

## CCGTTCAAGTGCTTGTAGGATTTAAATGGCGACAGCATGTATGCACATCT [5169-4_98]
[1]; VEGF-1Heg-PDGF, NapdU
  Kd: 0.0053 nM
[2]; VEGF-1Heg-PDGF, NapdU, 2'-OMe
  Kd: 0.14 nM

## CCGTTCAAGTGCTTGTAGGATTTAAATGG [4867-31_422]
[2]; as 4867-31_192, PS 3' of 19, 3' inverted dT
  Kd: 0.0095 nM

## CCGTTCAAGTGCTTGTAGGATTTAAATGG [4867-31_415]
[2]; as 4867-31_192, PS 3' of 8, 3' inverted dT
  Kd: 0.011 nM

## AGCCGTTCAAGTGCTTGTAGGATTTAAATGGA [4867-31_75]
[2]; P=Nap-dU, 2'-OMe G11
  Kd: 0.15 nM

## CCGTTCAAGTGCTTTTAGGATTTAAATGGA [4867-31_150]
[2]; P=Nap-dU
  Kd: 0.24 nM

## CCGTTCAAGTGCTTTAGGATTTAAATGG [4867-31_190]
[2]; NapdU at P, C3 spacer 15, 2'-OMe 9,17,18,22,28,29 as printed
  Kd: 0.089 nM
